{"source": "patent US20100196361A1", "about": "“Method of inhibition of vascular development using an antibody” (DYAX CORP., priority 2003, published 2010)"}
{"target": "Tie1 (Homo sapiens, UniProt P35590)", "sequence (P35590 22-1138)": "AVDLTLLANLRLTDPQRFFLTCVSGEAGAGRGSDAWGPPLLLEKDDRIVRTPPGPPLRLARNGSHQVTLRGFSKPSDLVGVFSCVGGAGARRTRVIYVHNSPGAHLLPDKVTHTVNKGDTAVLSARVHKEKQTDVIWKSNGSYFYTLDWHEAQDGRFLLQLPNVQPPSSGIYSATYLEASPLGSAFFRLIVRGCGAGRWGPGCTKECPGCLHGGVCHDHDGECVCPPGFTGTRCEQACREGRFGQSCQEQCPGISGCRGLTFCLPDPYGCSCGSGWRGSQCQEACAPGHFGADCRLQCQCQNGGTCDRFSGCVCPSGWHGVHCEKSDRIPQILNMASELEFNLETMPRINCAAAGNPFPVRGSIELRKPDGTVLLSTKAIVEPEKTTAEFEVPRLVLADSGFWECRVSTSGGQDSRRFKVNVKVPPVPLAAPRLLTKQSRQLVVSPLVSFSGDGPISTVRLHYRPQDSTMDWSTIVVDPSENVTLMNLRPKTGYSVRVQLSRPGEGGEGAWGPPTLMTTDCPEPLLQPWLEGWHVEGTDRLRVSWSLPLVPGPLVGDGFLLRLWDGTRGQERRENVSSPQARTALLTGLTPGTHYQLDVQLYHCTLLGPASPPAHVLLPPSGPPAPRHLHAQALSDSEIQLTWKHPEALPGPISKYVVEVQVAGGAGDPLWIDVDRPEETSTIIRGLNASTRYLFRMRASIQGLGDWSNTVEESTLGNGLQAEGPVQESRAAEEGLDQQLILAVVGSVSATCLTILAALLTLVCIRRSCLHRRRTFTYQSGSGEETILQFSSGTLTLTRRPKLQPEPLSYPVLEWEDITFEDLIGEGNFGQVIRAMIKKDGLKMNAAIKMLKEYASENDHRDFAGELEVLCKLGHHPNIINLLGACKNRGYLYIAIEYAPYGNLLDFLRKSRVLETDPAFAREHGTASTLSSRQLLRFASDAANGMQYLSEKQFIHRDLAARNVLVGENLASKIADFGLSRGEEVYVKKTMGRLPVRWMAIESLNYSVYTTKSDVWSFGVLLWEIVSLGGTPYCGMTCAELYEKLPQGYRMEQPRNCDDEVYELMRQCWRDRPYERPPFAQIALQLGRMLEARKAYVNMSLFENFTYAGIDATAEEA", "test": "Competition with E3 for binding to Tie1"}
{"molecule": "M0055E10: Tie1-binding antibody; LC SEQ ID NO:492, HC SEQ ID NO:494 (antibody, V domains shown, Antibody) VH: EVQLLESGGGLVQPGGSLRLSCAASGFTFSAYPMFWVRQAPGKGLEWVSVISPSGGQTSYADSVKGRFTISRDNSKNTLYLQMNSLRAEDTAVYYCAKSFSGLAALDFWGQGTLVTVSS VL: QDIQMTQSPATLSLSPGERATLSCRASQSVRTYLGWYQQKHGQAPRLLIYDASNRATGIPARFSGSGSGTDFTLTISSLEPEDFAVYYCQQRSNWPLTFGGGTKVEIK", "competition with E3 for binding to Tie1": "competes with E3 for binding to Tie1"}
{"molecule": "M0060H01: Tie1-binding antibody; LC SEQ ID NO:628, HC SEQ ID NO:630 (antibody, V domains shown, Antibody) VH: EVQLLESGGGLVQPGGSLRLSCAASGFTFSYYPMVWVRQAPGKGLEWVSVIVPSGGFTAYADSVKGRFTISRDNSKNTLYLQMNSLRAEDTAMYYCARKRPGNAFDIWGQGTMVTVSS VL: QDIQMTQSPATLSLSPGERATLSCRASQSVSSYLAWYQQKPGQAPRLLIYDASNRATGIPARFSGSGSGTDFTLTISSLEPEDFAVYYCQQRSNWPVTFGQGTRLEIK", "competition with E3 for binding to Tie1": "competes with E3 for binding to Tie1"}
{"molecule": "M0054H10: Tie1-binding antibody; LC SEQ ID NO:448, HC SEQ ID NO:450 (antibody, V domains shown, Antibody) VH: EVQLLESGGGLVQPGGSLRLSCAASGFTFSQYPMIWVRQAPGKGLEWVSVISPSGGHTSYADSVKGRFTISRDNSKNTLYLQMNSLRAEDTAVYYCARIQYYGGAFDIWGQGKMVTVSS VL: QDIQMTQSPATLSLSPGERATLSCRASQSVSIYLAWYQQKPGQAPRLLIYDASNRATDIPARFSGSGSGTDFTLTISSLEPEDFAVYYCQQRSSWPITFGLGTRLEIK", "competition with E3 for binding to Tie1": "competes with E3 for binding to Tie1"}
{"molecule": "M0058F03: Tie1-binding antibody; LC SEQ ID NO:604, HC SEQ ID NO:606 (antibody, V domains shown, Antibody) VH: EVQLLESGGGLVQPGGSLRLSCAASGFTFSDYGMAWVRQAPGKGLEWVSVISPSGGQTAYADSVKGRFTISRDNSKNTLYLQMNSLRAEDTAVYYCATVRWFGAFDYWGQGTLVTVSS VL: QDIQMTQSPSTLSASVGDRVTITCRASQGISNYLAWYQQKPGKVPKLLIYGASNLQSGVSSRFSGSGSATDFTLTISSLQPEDFATYYCQQFNSYPLTFGGGTKVEIK", "competition with E3 for binding to Tie1": "competes with E3 for binding to Tie1"}
